By IC50 is commonly meant the concentration that gives 50% inhibition.

Starred links: 1 amine or outer side, 2 acyl side, 3 side chain; linkers in the order of their positions; H or OH if unused. Positions of bridges follow the written chain, without caps; N, C: chain ends. Non-standard residues stand in square brackets, D forms with d. Primed or numbered codes have the meaning given here. *: point of attachment. PyrS2″ = (S)-3-amino-1-((pent-4-en-1-yloxy)carbonyl)pyrrolidine-3-carboxylic acid (stapling residue), C=CCCCOC(=O)N1CC[C@@](N[*:1])(C(=O)[*:2])C1; B5(16) = 2-amino-2-(pent-4-en-1-yl)hept-6-enoic acid = 2,2-bis(4-pentenyl)glycine (stitching residue), C=CCCCC(CCCC=C)(N[*:1])C(=O)[*:2]; B5(24) = 2-amino-2-(pent-4-en-1-yl)hept-6-enoic acid, 2,2-bis(4-pentenyl)glycine (stitching residue), C=CCCCC(CCCC=C)(N[*:1])C(=O)[*:2]; B5(4) = 2,2-bis(4-pentenyl)glycine = 2-amino-2-(pent-4-en-1-yl)hept-6-enoic acid (stitching residue), C=CCCCC(CCCC=C)(N[*:1])C(=O)[*:2]; B5(21) = 2-amino-2-(pent-4-en-1-yl)hept-6-enoic acid, bis(4-pentenyl)glycine (stitching residue), C=CCCCC(CCCC=C)(N[*:1])C(=O)[*:2]; MePpzAsn = (S)-2-amino-4-(4-methylpiperazin-1-yl)-4-oxobutanoic acid, CN1CCN(C(=O)C[C@H](N[*:1])C(=O)[*:2])CC1; EtGA = (S)-2-amino-3-((carboxymethyl)(ethyl)amino)propanoic acid, CCN(CC(=O)[*:3])C[C@H](N[*:1])C(=O)[*:2]; B5(3) = 2,2-bis(4-pentenyl)glycine (stitching residue), C=CCCCC(CCCC=C)(N[*:1])C(=O)[*:2]; 2COOHF″ = O=C([C@H](Cc1ccccc1C(=O)[*:3])N[*:1])[*:2]; Phe(3-COOH) = N[C@@H](Cc1cccc(C(=O)O)c1)C(=O)O; 2F3MeF = Cc1cccc(C[C@H](N[*:1])C(=O)[*:2])c1F; Phe(2-Cl) = N[C@@H](Cc1ccccc1Cl)C(=O)O; Phe(2-OMe) = COc1ccccc1C[C@H](N)C(=O)O; Bta = N[C@@H](Cc1csc2ccccc12)C(=O)O; αAllylPro = C=CC[C@@]1(C(=O)O)CCCN1; tBuAla = CC(C)(C)C[C@H](N)C(=O)O; 3Thi = N[C@@H](Cc1ccsc1)C(=O)O; Cit = NC(=O)NCCC[C@H](N)C(=O)O; S8 = C=CCCCCCC[C@](C)(N)C(=O)O; PyrS2(4) = not defined here; Alaol = C[C@@H](CO)N*

The target in test [1] is T1, B-cat-Halo (UniProt P35222 1-781).
T1 sequence (looked up): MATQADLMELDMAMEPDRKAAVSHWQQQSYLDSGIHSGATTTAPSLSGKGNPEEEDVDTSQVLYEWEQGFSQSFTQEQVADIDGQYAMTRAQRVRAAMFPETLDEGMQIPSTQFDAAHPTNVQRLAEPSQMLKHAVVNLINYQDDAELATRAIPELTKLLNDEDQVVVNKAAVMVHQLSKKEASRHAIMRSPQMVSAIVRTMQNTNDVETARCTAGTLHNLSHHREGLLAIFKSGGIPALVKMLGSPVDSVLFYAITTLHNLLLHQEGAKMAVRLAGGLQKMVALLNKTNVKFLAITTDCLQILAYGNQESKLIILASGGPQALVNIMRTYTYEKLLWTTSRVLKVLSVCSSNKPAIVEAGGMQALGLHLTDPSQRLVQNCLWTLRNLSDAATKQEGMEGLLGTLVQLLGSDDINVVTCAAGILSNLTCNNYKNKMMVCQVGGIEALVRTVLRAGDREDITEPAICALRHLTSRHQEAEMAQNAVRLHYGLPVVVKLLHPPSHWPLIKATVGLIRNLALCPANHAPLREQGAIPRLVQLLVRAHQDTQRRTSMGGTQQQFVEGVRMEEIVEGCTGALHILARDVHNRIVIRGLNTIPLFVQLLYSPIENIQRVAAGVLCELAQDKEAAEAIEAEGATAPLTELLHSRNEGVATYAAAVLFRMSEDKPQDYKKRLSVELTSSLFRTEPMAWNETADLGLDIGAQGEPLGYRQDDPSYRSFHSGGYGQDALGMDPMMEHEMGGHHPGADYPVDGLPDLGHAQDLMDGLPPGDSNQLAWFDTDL
The test is described as follows: cell-based or functional assay.

Test [2] deals with T2, beta-catenin in DLD1 TCF/LEF luciferase reporter cells (UniProt P35222 2-781).
T2 sequence (looked up): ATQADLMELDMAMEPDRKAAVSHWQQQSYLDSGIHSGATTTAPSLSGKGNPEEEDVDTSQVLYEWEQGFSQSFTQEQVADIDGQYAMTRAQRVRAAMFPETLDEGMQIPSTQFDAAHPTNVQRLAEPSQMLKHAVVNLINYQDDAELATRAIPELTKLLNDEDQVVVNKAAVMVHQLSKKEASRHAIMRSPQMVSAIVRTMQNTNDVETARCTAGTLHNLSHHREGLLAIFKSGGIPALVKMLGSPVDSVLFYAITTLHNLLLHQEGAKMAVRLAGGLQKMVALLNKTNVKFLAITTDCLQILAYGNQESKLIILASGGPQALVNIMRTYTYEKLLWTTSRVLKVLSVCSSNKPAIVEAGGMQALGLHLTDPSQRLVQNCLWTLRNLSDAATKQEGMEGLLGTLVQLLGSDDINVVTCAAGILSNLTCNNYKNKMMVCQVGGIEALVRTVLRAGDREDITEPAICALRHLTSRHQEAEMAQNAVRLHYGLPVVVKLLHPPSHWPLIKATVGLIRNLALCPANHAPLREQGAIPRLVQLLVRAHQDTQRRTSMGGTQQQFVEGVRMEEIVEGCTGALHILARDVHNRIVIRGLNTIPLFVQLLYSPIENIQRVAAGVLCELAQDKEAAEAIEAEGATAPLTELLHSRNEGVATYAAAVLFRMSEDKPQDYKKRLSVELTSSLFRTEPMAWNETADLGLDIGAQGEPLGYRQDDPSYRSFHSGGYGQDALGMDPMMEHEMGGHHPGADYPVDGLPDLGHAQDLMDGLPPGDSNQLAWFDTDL
The test can be described thus: cell-based or functional assay.

Test [3] has as its target T3, B-cat-Halo (UniProt P35222 1-781).
T3 sequence (looked up): T1 sequence (looked up)
The test is described as follows: cell-based or functional assay. The source holds these as a separate data set.

The target of test [4] is T4, beta-catenin in DLD1 TCF/LEF luciferase reporter cells (UniProt P35222 1-781).
T4 sequence (looked up): T1 sequence (looked up)
The test can be described thus: cell-based or functional assay.

The target of test [5] is T5, B-cat-Halo (UniProt P35222 1-781).
T5 sequence (looked up): T1 sequence (looked up)
The test is described as follows: cell-based or functional assay. This is another data set of the same source.

Test [6] addresses T6, full-length beta-Catenin (Uniprot ID P35222) (Homo sapiens (Human), UniProt P35222 1-781).
T6 construct: The assay text says 'full-length'; also called bCat; B-Catenin
T6 sequence: T1 sequence (looked up)
The test can be described thus: fluorescence polarization competition; peptide titrated against 10 nM full-length beta-catenin + 10 nM 5FAM-TCF4(10-53) probe. The method, then:
The plate was incubated protected from light for 60 minutes at 20° C. prior to read. Reads were performed on a CLARIOstar plate reader (BMG Labtech) in duplicate, and data were fitted to a 1:1 binding model with hill slope using an in-house script. All provided concentrations are final concentrations.

The target of test [7] is T7, beta-catenin (endogenous, DLD1 TCF/LEF luciferase reporter cells) (UniProt P35222 1-781).
T7 sequence (looked up): T1 sequence (looked up)
The test can be described thus: cell-based or functional assay.

Test [8] addresses T8, B-cat-Halo (UniProt P35222 1-781).
T8 sequence (looked up): T1 sequence (looked up)
The test is described as follows: cell-based or functional assay. This is another data set of the same source.

Test [9] concerns the target T9, B-cat-Halo (beta-catenin HaloTag NanoBRET construct expressed in HEK293 cells) (UniProt P35222 1-781).
T9 sequence (looked up): T1 sequence (looked up)
The test can be described thus: cell-based or functional assay.

The target of test [10] is T10, beta-catenin in DLD1 TCF/LEF luciferase reporter cells (Homo sapiens (Human), UniProt P35222 2-781).
T10 sequence: T2 sequence (looked up)
The test can be described thus: cell-based or functional assay.

The target in test [11] is T11, B-cat-Halo (beta-catenin HaloTag NanoBRET construct expressed in HEK293 cells) (Homo sapiens (Human), UniProt P35222 1-781).
T11 sequence: T1 sequence (looked up)
The test is described as follows: cell-based or functional assay.

B1: I-629 (peptide)
peptide: Ac-[αAllylPro]DL[B5(16)]DEAAF[Cit][S8]F[Bta]-NH2
modifications: staple 1-4, 4-11; not fully specified; printed as Ac-PL3-Asp-Leu-B5-Asp-Glu-Ala-Ala-Phe-Cit-S8-Phe-BztA-NH2
For the molecule B1, in the test with B-cat-Halo [1], the “NanoBRET Abs IC50” value was 30 µM.
On to Ac-[αAllylPro]D[tBuAla][B5(3)]D[EtGA]AAFL[PyrS2″][3Thi][Bta]Q-NH2 (staple 1-4, 4-11; also: later-eluting HPLC isomer) [I-973], for which the “DLD1 4% Abs IC50” value in test [2] stood at 10.1 µM. Moreover, the “NanoBRET Abs IC50” value with B-cat-Halo [3] stood at 19 µM.
For Ac-[αAllylPro]D[tBuAla][B5(16)]D[2COOHF″]AAFL[PyrS2(4)][3Thi][Bta]S-NH2 (staple 1-4, 4-11; not fully specified; reading uncertain) [I-1667], the “DLD1 4% Abs IC50” value in test [4] stood at 1.3 µM.
Regarding Ac-[αAllylPro]DA[B5(24)]DEAAFN[S8][Phe(2-OMe)][Bta]Q-NH2 (staple 1-4, 4-11, Stapled peptide composition) [I-437], the “NanoBRET Abs IC50” value in the test with B-cat-Halo [5] came out at 17.5 µM. In test [6], the IC50 was 0.026 µM.
Consider Ac-[αAllylPro]D[tBuAla][B5(3)]D[Phe(3-COOH)]AAFL[PyrS2″][2F3MeF][Bta][MePpzAsn]-NH2 (staple 1-4, 4-11) [I-1612], for which the “DLD1 4% Abs IC50” value in [7] stood at 4 µM. Further, the “NanoBRET Abs IC50” value with B-cat-Halo [8] was 5.3 µM.
On to Ac-[αAllylPro]DA[B5(21)]DEAAFN[PyrS2″]F[Bta]Q-NH2 (staple 1-4, 4-11) [I-462], for which the “NanoBRET Abs IC50” value in test [9] is over 20 µM.
On to Ac-[αAllylPro]D[tBuAla][B5(4)]DDAAFT[PyrS2″][Phe(2-Cl)][Bta]-Alaol (staple 1-4, 4-11; also: C-terminal Alao1 group, meaning not given here) [I-1246], for which the “DLD1 4% Abs IC50” value in test [10] turned out to be 16.2 µM. Also, the “NanoBRET Abs IC50” value in test [11] came out at 24.3 µM.

(Values after patent US20240116985A1 (published 2024).)
